Measured values published in the RNAGym collection of RNA variant scans (doi:10.1101/gr.219683.116).

B1: mRNA-splicing (parent)
chain: AGUUGCUGCUGGGAGCUCCAGCACAGUGAAAUGGACAGAAGGGCAGAGCAA

Variants of: B1
Assay: exon inclusion enrichment index; higher = more inclusion; WT1 exon 5 minigene, HEK293

Variant | exon inclusion enrichment index
G5A C6U U7A G8U C9A G41C G42C | 0.417
G5C C6G U7C U10C A29U A30G | 3.83
G5C C6A U7C G8A U10A G43C C44G | 1.22
G5U G8U C9U A35G C36A | 0.0301
G5C C6U G8C C9U U10C A23U C24A | 0.79
U32A | 0.107
G5A C6U U7A G8U C9A A47G G48U | 0.00228
G5C C6A U7C G8A U10A G41U G42U | 0.0854
G5A C6G U7G C9A G34C A35G | 0.00232
G5A U7C G8A U10C G34C | 0.949
C6A U7A C9A U10A G28A A29G | 0.227
C6G | 0.0263
G5A U7C G8A U10C U17G | 1.81
G5A C6G U7G C9A C19G A20G | 0.00172
G5C C6G U7C U10C A23C | 2.88
C19G | 2.42
G5A U7C G8A U10C G11U G12A | 0.117
U17G C18A | 1.73
G5C C6A U7C G8A U10A C19U | 0.0124
G5A C6G U7G C9A A40G G41C | 0.0252
G5C C6U U7A U10C | 0.444

Variant | exon inclusion enrichment index
G5C C6G U7C G8U C9A U10C | 2.74
C6A U7C C9A U10C C44G A45G | 1.29
G5C C6A U7C G8A U10A A40U G41A | 0.00421
C44G | 0.391
U4A G5U C6U G8C C9U U10C | 0.723
G5C C6U G8C C9U U10C C18G | 2.21
G5C C6G U7C U10C A35C C36U | 0.625
G5C C6U G8C C9U U10C C22A | 1.57
U7A G8U C9A | 0.565
C6A U7G G8A C9A U10A | 0.0362
C6A U7C C9A U10C G26U U27A | 2.38
G5C C6U G8C C9U U10C G41A | 1.33
G5U G8U C9U A31U | 0.15
G5U G8U C9U A31G | 0.187
C6A U7A C9A U10A U32G G33U | 0.178
C6A U7A C9A U10A U32G G33A | 0.11
G5C C6A U7C G8A U10A U32C G33U | 0.0717
C6A U7C C9A U10C A20U G21A | 2.77
U3A U4A G5A C6G U7G C9A | 0.0117
G5C C6U G8C C9U U10C U32G G33U | 0.774
G5U G8U C9U G34C A35G | 0.0652

Variant | exon inclusion enrichment index
U4A G5A G8U C9U | 0.144
G5A U7C G8A U10C C18U | 1.67
G5U C6A U7A G8U C9A | 0.0741
G5U C6A U7A G8U C9U | 0.0678
G5C C6A U7C G8A U10A A37G G38C | 0.228
G5A C6U U7A G8U C9A A14G G15A | 0.0192
G5U G8U C9U C19U A20C | 0.0318
G5C C6G U7C U10C C22G A23C | 2.56
G5A C6A U7C U10C | 2.4
U4A G5C | 0.183
G5A C6G U7G C9A G34A A35G | 0.00114
U4A G5A C6G U7G C9A | 0.0163
G5A U7C G8A | 1.09
G42A G43U | 1.63
G42A G43C | 2.4
G5C C6G U7C U10C G11U G12A | 1.11
G2A U3C | 0.0113
A25G G26A | 0.573
G5U C6G | 0.00229
G5C C6A U7C G8A G11A | 0.126
G5C C6A U7C G8A C9G U10A | 0.545

Variant | exon inclusion enrichment index
G26C U27C | 0.584
G5A C6U U7A G8U C9A U17C C18A | 0.0363
G5C C6A U7C G8A U10A G12C G13C | 0.0502
G5C C6G U7C U10C G38C A39C | 2.86
G5U G8U C9G | 0.267
U4C G5U C6U G8C C9U U10C | 1.08
U4C G5A C6G U7G C9A | 0.0522
G5A C6U U7A G8U C9A G34A | 0.0272
U4C G5U C6U U7A G8U C9A | 0.269
G5A C6U U7A G8U C9A A14U G15U | 0.00593
U4G G5A C6A U7A C9A U10A | 0.315
G5A C6U U7A G8U C9A A35G | 0.017
G5A C6G U7G C9A G28A A29C | 0.00171
G5U G8U C9U A37C G38C | 0.175
G5U G8U C9U A37C G38U | 0.0543
C6A U7C C9A U10C C36G A37C | 1.56
C6A U7C C9A U10C C24A A25U | 2.96
G5A U7C G8A U10C G38U | 0.919
G5A U7C G8A U10C G38A | 1.25
G5U G8U C9U C24U A25C | 0.987
G5C C6A U7G U10A | 0.0115
